Values of other authors as cited in PMC10179296.
pKd: −log10 of the molar value.

Target: CCL2 (Homo sapiens) (UniProt P13500)
Experiment: isothermal fluorescence titration

Tenascin-C, sequence (P24821 23-2201): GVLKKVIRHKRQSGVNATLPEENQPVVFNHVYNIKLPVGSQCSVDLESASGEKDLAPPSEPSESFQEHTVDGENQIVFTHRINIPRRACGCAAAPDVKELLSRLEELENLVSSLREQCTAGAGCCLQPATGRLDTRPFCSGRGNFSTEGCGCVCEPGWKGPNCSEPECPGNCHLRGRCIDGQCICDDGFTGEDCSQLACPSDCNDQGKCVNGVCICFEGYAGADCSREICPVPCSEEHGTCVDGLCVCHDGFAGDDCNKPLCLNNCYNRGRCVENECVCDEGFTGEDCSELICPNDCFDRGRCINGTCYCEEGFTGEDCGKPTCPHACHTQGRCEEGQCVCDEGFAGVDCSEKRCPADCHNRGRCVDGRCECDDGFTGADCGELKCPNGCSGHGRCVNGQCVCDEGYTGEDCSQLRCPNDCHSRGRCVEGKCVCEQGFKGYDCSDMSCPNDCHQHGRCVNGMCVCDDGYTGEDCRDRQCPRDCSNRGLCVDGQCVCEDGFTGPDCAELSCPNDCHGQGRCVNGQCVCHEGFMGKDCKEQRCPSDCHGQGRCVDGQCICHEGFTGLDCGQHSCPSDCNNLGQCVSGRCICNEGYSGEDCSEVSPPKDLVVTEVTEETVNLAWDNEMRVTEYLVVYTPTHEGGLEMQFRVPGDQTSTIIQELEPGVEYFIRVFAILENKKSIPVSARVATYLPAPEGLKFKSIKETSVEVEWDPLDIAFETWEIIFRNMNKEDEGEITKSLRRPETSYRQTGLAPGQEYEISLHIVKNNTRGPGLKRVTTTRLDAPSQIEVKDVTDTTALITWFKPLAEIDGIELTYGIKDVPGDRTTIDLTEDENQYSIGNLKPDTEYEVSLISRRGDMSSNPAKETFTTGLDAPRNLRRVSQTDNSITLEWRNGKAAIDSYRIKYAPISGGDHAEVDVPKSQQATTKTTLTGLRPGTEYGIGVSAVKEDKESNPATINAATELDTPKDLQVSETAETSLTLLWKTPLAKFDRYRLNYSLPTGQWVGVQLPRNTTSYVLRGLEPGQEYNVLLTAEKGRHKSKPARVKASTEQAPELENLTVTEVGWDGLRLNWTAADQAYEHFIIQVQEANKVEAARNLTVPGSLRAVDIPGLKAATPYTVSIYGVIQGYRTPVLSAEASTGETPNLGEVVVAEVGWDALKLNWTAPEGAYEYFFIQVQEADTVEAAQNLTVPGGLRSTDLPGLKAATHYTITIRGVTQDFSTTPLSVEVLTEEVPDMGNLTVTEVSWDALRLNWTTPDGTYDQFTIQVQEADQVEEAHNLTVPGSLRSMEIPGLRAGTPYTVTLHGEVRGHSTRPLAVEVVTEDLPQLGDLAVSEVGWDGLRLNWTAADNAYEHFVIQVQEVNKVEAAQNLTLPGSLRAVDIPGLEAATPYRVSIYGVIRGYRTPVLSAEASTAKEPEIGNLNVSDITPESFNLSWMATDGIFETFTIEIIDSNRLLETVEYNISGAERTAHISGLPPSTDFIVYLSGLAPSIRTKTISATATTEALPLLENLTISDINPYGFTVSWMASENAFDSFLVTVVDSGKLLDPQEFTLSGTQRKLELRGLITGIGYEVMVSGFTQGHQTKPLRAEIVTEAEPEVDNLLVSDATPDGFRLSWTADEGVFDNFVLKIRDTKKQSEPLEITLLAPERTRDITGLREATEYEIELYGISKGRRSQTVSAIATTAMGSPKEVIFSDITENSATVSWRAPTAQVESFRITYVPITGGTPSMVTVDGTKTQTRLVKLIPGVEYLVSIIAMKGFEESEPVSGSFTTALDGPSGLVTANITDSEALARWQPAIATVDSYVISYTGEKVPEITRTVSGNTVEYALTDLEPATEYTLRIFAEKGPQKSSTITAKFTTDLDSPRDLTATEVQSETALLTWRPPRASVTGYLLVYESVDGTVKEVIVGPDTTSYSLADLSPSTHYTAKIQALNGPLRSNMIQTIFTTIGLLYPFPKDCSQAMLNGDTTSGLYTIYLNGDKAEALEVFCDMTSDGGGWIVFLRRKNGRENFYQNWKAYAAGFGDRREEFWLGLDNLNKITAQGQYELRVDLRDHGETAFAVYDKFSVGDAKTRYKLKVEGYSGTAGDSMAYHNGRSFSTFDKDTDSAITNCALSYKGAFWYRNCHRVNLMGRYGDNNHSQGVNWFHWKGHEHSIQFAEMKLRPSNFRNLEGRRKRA
CCL2 (Homo sapiens), sequence (P13500 24-99): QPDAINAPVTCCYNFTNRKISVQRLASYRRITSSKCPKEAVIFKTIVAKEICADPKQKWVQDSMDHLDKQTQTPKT

Substance: Tenascin-C (from UniProt P24821)
- pKd: 5.63
